In publication PMC10995880:
pKd: −log10 of the molar value. “And” between values parts separate entries of the source, which are not always exact repeats. Equal values may be shown once. Read-outs that look alike come from different tables or passages of the source. Values belong to the substance of their own block, whether it stands above or below them.

Key:
[1] = molecular target: His6-PEX19-WT (1–299 aa), non-farnesylated (human) (UniProt P40855); assay: cross-linking; UV crosslinking from Bpa at L264 of PEX26; purified PEX19·PEX26^Bpa complex chased with SGTA instead of CaM
[2] = molecular target: His6-PEX19-αd4A (F125A, L129A, L133A, L136A), non-farnesylated (human) (UniProt P40855); assay: as above
[3] = molecular target: farnesylated PEX19-WT (PEX19-WT^F) (human) (UniProt P40855); assay: cross-linking; UV crosslinking from Bpa at L264 of PEX26; purified PEX19·PEX26^Bpa complex (400 nM PEX19) chased with 20 μM CaM at room temperature in 20 mM K-HEPES pH 7.5, 150 mM CH3COOK, 1 mM Ca acetate, 1 mM DTT, 10% glycerol; frozen aliquots irradiated; anti-Strep blot; dissociation (%) = PEX26xCaM/(PEX26xPEX19 + PEX26xCaM)
PEX19-WT proteins = assay: as above
[4] = molecular target: His6-PEX19-WT (1–299 aa), non-farnesylated (human) (UniProt P40855); assay: as above
PEX19-αd4A proteins = assay: as above
[5] = molecular target: His6-PEX19-αd4A (F125A, L129A, L133A, L136A), non-farnesylated (human) (UniProt P40855); assay: as above
[6] = molecular target: 2×Strep-SUMO-PEX26 (237-305aa) (UniProt Q7Z412)
[7] = molecular target: PEX3 cytosolic domain (Homo sapiens) (UniProt P56589); conditions: cited from earlier work
[8] = molecular target: PEX3 cytosolic domain (Homo sapiens) (UniProt P56589); conditions: cited from earlier work; remark: listed apart in the source

Sequence of PEX3 cytosolic domain (Homo sapiens) (P56589 41-373): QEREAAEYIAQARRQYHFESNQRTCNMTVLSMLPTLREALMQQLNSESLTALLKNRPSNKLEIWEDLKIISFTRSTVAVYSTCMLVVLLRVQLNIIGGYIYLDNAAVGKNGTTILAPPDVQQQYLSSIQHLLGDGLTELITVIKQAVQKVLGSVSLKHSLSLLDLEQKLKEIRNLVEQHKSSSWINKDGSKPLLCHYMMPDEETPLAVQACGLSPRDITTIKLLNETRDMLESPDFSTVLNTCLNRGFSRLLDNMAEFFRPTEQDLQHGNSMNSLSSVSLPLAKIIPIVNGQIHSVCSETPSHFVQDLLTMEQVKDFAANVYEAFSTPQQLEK
Sequence of 2×Strep-SUMO-PEX26 (237-305aa) (Q7Z412 237-305): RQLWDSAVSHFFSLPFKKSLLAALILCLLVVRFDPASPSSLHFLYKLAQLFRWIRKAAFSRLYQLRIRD
Sequence of His6-PEX19-WT (1–299 aa), non-farnesylated (P40855 whole entry, the tested form may be a part): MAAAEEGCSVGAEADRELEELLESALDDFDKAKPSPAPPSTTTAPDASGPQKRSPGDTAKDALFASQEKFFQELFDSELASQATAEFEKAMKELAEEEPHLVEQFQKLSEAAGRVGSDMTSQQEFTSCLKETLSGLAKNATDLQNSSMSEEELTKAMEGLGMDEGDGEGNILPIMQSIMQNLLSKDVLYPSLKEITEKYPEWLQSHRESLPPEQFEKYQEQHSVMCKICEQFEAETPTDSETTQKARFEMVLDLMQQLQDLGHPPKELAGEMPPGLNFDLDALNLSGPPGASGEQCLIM
Sequence of farnesylated PEX19-WT (PEX19-WT^F) (P40855 whole entry): as the sequence (P40855 whole entry, the tested form may be a part) above
Sequence of PEX19 αa peptide (P40855 14-33): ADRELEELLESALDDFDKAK
Sequence of PEX19 (P40855 2-296): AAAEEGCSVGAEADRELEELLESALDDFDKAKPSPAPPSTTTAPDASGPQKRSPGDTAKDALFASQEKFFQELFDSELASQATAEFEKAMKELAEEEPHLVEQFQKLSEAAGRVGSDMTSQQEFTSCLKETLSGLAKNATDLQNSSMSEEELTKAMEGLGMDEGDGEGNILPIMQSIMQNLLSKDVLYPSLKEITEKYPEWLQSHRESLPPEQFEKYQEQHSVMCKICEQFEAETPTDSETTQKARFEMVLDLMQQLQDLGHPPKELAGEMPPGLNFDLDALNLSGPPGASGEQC

Substance: His6-PEX19-WT (1–299 aa), non-farnesylated (from UniProt P40855 1-299) (natural protein)
turbidity assay (OD360): concentration of PEX19 for half-maximal solubilization of 1.5 μM PEX26 (K soluble) [6]: 1.71 µM

Substance: PEX19 (from UniProt P40855)
pKd [7]: 8.47

Substance: PEX19 αa peptide (from UniProt P40855)
pKd [8]: 7.39

Other lines, results leading:

PEX26 dissociation (%) within 80 min of SGTA chase [1]: < 4% | PEX26 dissociation (%) within 10 min of SGTA chase [2]: > 40% | PEX26 dissociation (%) within 20 min of SGTA chase [2]: 50% | time to release ∼20% of PEX26 to CaM [3]: 240 min | PEX26 dissociation (%) within 4 h of CaM chase (PEX19-WT proteins): 20% and 30% | PEX26 dissociation (%) within 10 min of CaM chase [4]: 16% | time to release ∼20% of PEX26 to CaM [4]: 30 min and 40 min | PEX26 dissociation (%) within 5 min of CaM chase (PEX19-αd4A proteins): 60% and 80% | PEX26 dissociation (%) within 10 min of CaM chase [5]: 70%
Substance: 2×Strep-SUMO-PEX26^Bpa (L264^Bpa) (from UniProt Q7Z412 237-305) (domain or fragment)

turbidity assay (OD360): concentration of PEX19 for half-maximal solubilization of 1.5 μM PEX26 (K soluble) [6]: 0.72 µM
Substance: farnesylated PEX19-WT (PEX19-WT^F) (from UniProt P40855 1-299) (natural protein)
